Data as given in publication PMC11065870, “The complete assembly of human LAT1-4F2hc complex provides insights into its regulation, function and localisation” (Nature Communications, 2024).

T1: 4F2hc, desialylated (neuraminidase-treated) (human, UniProt P08195-1 1-630, N-glycans at Asn365, Asn381, Asn424 and Asn506 without sialic acid (neuraminidase); fucosylation and branching retained)
T1 construct: 4F2 cell-surface antigen heavy chain (4F2hc, SLC3A2), human, full-length cDNA in pCAG; also called desialylated 4F2hc; source: HEK293F, co-transfected with LAT1, purified, then neuraminidase digestion
T1 sequence (looked up): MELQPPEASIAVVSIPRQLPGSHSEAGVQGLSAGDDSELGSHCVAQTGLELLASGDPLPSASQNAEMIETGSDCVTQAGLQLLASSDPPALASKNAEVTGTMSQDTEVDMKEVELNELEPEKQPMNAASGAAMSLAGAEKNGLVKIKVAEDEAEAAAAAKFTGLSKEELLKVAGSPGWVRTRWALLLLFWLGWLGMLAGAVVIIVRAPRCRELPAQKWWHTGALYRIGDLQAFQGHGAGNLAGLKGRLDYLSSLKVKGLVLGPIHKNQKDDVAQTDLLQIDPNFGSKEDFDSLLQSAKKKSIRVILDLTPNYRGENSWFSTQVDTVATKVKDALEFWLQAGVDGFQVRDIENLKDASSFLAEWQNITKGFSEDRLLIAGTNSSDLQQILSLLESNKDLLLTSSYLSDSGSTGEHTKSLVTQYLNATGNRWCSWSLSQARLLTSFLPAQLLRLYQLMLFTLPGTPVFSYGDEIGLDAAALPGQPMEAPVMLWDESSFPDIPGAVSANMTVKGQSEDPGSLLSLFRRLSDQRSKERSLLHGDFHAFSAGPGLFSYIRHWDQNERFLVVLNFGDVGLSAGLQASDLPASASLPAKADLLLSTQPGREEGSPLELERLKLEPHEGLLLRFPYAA

T2: 4F2 cell-surface antigen heavy chain (4F2hc, SLC3A2), fully glycosylated (human, UniProt P08195-1 1-630, four highly branched, sialylated N-glycans at Asn365, Asn381, Asn424 and Asn506 (9 to 16 sialic acid residues); one phosphorylation site (residue not given))
T2 construct: 4F2 cell-surface antigen heavy chain (4F2hc, SLC3A2), human, full-length cDNA in pCAG; source: HEK293F, co-transfected with LAT1, purified (anti-Flag M2 resin, Ni-NTA, SEC) in digitonin
T2 sequence (looked up): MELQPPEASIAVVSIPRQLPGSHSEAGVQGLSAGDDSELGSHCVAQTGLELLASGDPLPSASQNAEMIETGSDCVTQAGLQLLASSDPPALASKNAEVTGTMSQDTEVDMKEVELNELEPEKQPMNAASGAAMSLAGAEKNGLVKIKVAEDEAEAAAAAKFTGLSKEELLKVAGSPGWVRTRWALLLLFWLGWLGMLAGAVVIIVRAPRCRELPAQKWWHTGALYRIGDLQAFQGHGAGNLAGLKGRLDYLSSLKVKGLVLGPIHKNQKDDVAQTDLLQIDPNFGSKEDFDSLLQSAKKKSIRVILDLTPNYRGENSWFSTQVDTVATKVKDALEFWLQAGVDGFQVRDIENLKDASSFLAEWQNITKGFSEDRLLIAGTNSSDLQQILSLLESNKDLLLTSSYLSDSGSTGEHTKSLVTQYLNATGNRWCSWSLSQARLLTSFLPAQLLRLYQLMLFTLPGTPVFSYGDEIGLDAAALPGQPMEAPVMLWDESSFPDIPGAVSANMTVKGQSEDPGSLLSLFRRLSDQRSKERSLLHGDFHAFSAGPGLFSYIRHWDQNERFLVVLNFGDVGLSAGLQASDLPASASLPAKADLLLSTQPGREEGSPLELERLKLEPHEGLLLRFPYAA


Experiments:
[1] = biological target: T1, 4F2hc, desialylated …; assay: native MS; complex at about 4 µM in 200 mM ammonium acetate pH 7.0 with 2 mM OGNG, released from OGNG micelles, Q Exactive UHMR, positive mode; conditions: both partners purified
[2] = biological target: T2, 4F2 cell-surface antigen heavy chain …; assay: as above; conditions: both partners purified
[3] = biological target: the molecule itself; assay: native MS; LAT1 alone; sample and conditions not told in the text (Supplementary Fig. 12C)
[4] = biological target: the molecule itself; assay: native MS; complex at about 4 µM in 200 mM ammonium acetate pH 7.0 with 2 mM OGNG, released from OGNG micelles, Q Exactive UHMR, positive mode

Binder	binding result [1]	binding result [2]	stoichiometry N [3]	stoichiometry N [4]
L-type amino acid transporter 1 (LAT1, SLC7A5) (natural protein, phosphoserine at S35 (mono-phosphorylated proteoform, part of the population), L-type amino acid transporter 1 (LAT1, SLC7A5), human, full-length cDNA in pCAG; also called light chain; source: HEK293F, co-transfected with 4F2hc, purified (anti-Flag M2 resin, Ni-NTA, SEC) in digitonin) not shown	binds	binds	2	–
LAT1-4F2hc heterodimer, wild type, fully glycosylated (complex, phosphoserine at S35 (mono-phosphorylated proteoform, part of the population) | four highly branched, sialylated N-glycans at Asn365, Asn381, Asn424 and Asn506 (9 to 16 sialic acid residues); one phosphorylation site (residue not given), L-type amino acid transporter 1 (LAT1, SLC7A5), human, full-length cDNA in pCAG; 4F2 cell-surface antigen heavy chain (4F2hc, SLC3A2), human, full-length cDNA in pCAG; The two chains are joined by a disulfide bond; Two such heterodimers form the super-dimer (LAT1-4F2hc)2; also called LAT1-4F2hc complex; SLC7A5-SLC3A2; source: HEK293F, co-transfected, purified (anti-Flag M2 resin, Ni-NTA, SEC) in …) chain 1: not shown chain 2: MELQPPEASIAVVSIPRQLPGSHSEAGVQGLSAGDDSELGSHCVAQTGLELLASGDPLPSASQNAEMIETGSDCVTQAGLQLLASSDPPALASKNAEVTGTMSQDTEVDMKEVELNELEPEKQPMNAASGAAMSLAGAEKNGLVKIKVAEDEAEAAAAAKFTGLSKEELLKVAGSPGWVRTRWALLLLFWLGWLGMLAGAVVIIVRAPRCRELPAQKWWHTGALYRIGDLQAFQGHGAGNLAGLKGRLDYLSSLKVKGLVLGPIHKNQKDDVAQTDLLQIDPNFGSKEDFDSLLQSAKKKSIRVILDLTPNYRGENSWFSTQVDTVATKVKDALEFWLQAGVDGFQVRDIENLKDASSFLAEWQNITKGFSEDRLLIAGTNSSDLQQILSLLESNKDLLLTSSYLSDSGSTGEHTKSLVTQYLNATGNRWCSWSLSQARLLTSFLPAQLLRLYQLMLFTLPGTPVFSYGDEIGLDAAALPGQPMEAPVMLWDESSFPDIPGAVSANMTVKGQSEDPGSLLSLFRRLSDQRSKERSLLHGDFHAFSAGPGLFSYIRHWDQNERFLVVLNFGDVGLSAGLQASDLPASASLPAKADLLLSTQPGREEGSPLELERLKLEPHEGLLLRFPYAA	–	–	–	2
